T1: biotinylated recombinant human LAG-3 (human, UniProt P18627 23-450, limits assumed, biotinylated)
T1 construct: also called soluble recombinant human LAG-3 protein
T1 sequence (looked up): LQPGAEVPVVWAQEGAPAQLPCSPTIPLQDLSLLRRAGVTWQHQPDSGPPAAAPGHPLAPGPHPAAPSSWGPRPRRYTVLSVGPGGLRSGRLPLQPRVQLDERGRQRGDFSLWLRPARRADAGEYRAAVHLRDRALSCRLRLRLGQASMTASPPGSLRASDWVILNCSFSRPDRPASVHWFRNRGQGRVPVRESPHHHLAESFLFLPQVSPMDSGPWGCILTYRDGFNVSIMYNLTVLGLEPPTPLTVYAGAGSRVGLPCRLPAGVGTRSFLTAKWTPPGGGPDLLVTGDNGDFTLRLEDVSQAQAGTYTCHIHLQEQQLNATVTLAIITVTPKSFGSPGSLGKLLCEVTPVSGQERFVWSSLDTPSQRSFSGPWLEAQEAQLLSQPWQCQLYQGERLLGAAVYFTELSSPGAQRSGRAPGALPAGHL

T2: human LAG-3 coupled to phycoerythrin (human, UniProt P18627 23-450, limits assumed, coupled to phycoerythrin)
T2 construct: also called Labelled LAG-3
T2 sequence (looked up): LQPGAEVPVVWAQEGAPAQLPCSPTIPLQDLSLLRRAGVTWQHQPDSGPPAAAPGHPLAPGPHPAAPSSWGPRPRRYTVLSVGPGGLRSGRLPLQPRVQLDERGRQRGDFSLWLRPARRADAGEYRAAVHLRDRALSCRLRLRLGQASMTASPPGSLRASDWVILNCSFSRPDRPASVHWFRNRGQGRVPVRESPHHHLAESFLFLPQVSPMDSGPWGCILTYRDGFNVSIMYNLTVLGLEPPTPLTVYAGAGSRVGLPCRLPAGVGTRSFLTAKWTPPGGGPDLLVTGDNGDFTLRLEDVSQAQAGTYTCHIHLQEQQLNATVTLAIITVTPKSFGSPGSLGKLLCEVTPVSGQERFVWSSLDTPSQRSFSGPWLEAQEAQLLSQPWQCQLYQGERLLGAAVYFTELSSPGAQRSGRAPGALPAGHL

T3: Human LAG-3 coupled to human Fc (human, UniProt P18627 23-450, limits assumed)
T3 construct: also called LAG-3-Fc; human LAG-3-Fc; not shown: human Fc
T3 sequence (looked up): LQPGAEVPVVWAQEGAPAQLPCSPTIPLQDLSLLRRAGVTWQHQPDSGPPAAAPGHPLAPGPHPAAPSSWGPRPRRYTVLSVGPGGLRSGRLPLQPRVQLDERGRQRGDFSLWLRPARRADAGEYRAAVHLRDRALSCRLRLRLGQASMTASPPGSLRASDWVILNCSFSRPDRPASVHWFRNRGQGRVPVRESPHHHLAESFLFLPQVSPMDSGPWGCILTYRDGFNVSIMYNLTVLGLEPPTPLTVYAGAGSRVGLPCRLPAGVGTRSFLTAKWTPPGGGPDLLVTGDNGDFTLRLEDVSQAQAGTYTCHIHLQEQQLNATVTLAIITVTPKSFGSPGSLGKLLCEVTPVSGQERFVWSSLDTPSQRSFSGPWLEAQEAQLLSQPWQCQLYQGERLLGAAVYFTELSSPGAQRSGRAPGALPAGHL

T4: human LAG-3 (Bio-Layer Interferometry; construct not stated) (human, UniProt P18627 23-450, limits assumed)
T4 sequence (looked up): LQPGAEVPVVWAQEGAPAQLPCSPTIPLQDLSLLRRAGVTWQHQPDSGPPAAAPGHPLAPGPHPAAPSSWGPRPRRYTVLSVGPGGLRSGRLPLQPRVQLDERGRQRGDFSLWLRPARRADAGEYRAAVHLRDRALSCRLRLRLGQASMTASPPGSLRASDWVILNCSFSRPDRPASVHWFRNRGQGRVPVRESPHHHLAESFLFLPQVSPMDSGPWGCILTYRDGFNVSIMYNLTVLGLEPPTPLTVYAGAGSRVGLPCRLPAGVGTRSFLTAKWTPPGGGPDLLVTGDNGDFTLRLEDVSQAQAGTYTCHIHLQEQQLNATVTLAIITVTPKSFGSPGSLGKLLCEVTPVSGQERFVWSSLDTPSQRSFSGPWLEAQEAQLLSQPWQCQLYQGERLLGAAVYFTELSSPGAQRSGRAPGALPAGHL

T5: mouse LAG-3 coupled to human Fc (mouse, UniProt Q61790 24-442, limits assumed)
T5 construct: also called murine LAG-3; Fc-coupled murine LAG-3; not shown: human Fc
T5 sequence (looked up): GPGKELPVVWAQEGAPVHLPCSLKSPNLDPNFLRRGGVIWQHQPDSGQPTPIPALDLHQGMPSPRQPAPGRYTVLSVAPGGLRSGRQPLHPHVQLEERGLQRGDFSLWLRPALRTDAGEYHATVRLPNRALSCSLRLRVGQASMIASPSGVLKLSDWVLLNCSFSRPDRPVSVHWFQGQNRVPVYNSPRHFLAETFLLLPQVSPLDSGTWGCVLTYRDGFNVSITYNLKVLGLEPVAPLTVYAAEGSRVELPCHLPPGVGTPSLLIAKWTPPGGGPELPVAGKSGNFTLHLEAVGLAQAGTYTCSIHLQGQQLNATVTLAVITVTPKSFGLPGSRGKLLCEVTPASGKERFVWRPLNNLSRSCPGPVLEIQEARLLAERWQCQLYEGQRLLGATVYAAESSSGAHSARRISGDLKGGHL


Assays:
[1] = target: T1, biotinylated recombinant human LAG-3; test: ELISA, antibody coated on the plate, biotinylated recombinant human LAG-3 titrated (x axis, nM), streptavidin detection, absorbance 450-570 nm
[2] = target: T2, human LAG-3 coupled to phycoerythrin; test: blocking assay, flow cytometry: labelled LAG-3 pre-incubated with Fab, then binding to MHC class II on Daudi cells, mean fluorescence intensity
[3] = target: T3, Human LAG-3 coupled to human Fc; test: SPR (ProteOn XPR 36), human LAG-3-Fc immobilised, A6 Fab as analyte at five concentrations (L1A1-L1A5)
Procedure: (§1) Association and dissociation rates were measured with a ProteOn XPR 36 analyser (Biorad) and the affinity (KD) was calculated.

[4] = target: T3, Human LAG-3 coupled to human Fc; test: SPR (ProteOn XPR 36), human LAG-3-Fc immobilised, A6 Fab as analyte
Procedure: as §1

[5] = target: T2, human LAG-3 coupled to phycoerythrin; test: flow cytometry; inhibition of binding of PE-coupled human LAG-3 to MHC class II on Daudi cells
Procedure: Daudi cells were plated in 96-well plates and fixed/permeabilised in Fix/Perm buffer in the presence of anti-CD16/CD32 antibody. Premixes were added onto the Daudi cells and incubated for 30 minutes at 4° C. The cells were then washed three times in Perm/Wash buffer, resuspended in PBS and analysed by flow cytometry.

[6] = target: T2, human LAG-3 coupled to phycoerythrin; test: blocking assay, flow cytometry: phycoerythrin-coupled human LAG-3 pre-incubated with Fab, then binding to MHC class II on Daudi cells
[7] = target: T4, human LAG-3 (Bio-Layer Interferometry; …); test: Bio-Layer Interferometry
[8] = target: T5, mouse LAG-3 coupled to human Fc; test: ELISA, plate coated with mouse LAG-3-Fc, crude periplasmic Fab extract, anti-human Fab-HRP, absorbance 450-670 nm
Procedure: After extensive washes in PBS Tween-20, crude periplasmic extracts from the induction were transferred into the ELISA wells in the presence of 7% milk in PBS. After 90 minutes at room temperature under agitation and extensive washes, a goat anti-human Fab antibody coupled to HRP was added. One hour la ter, plates were washed and TMB substrate was added. The reaction was stopped with 1M HCl and optical density was measured at 450 nm with a reference at 670 nm. Antibodies giving an absorbance >0.1 were selected as positive. A first clonality screening was performed by DNA fingerprinting; clonality was then confirmed by sequencing.

| Binder | IC50 [6] | Kd [7] | binding result [8] | also measured |
| --- | --- | --- | --- | --- |
| anti-LAG-3 antibody clone G8 in IgG4 format (antibody, V domains shown, also called G8 IgG4) VH: QVQLVQSGGGVVQPGRSLRLSCAASGFTFSSYAMHWVRQAPGKGLEWVAVISYDGSNKYYADSVKGRFTISRDNSKNTLYLQMNSLRAEDTAVYYCARDPDAANWGFLLYYGMDVWGQGTTVTVSS VL: EIVLTQSPGTLSLSPGERATLSCTTSQSVSSTSLDWYQQKPGQAPRLLIYGASSRATGIPDRFSGSGSGTDFTLTISRLEPEDFAVYYCQQYGSSLLTFGGGTKVEIK | – | – | – | EC50 (read off the curve) [1]: ~0.4 nM |
| anti-LAG-3 antibody clone A6 Fab (Fab, V domains shown, Fab format, from a human phage display library; the constant domains of the Fab are not) VH: EVQLVQSGAEVKKPGSSVKVSCKASGYTFTSYYMHWVRQAPGQGLEWMGIINPSGGSTSYAQKFQGRVTMTRDTSTSTVYMELSSLRSEDTAVYYCAMPFGDFDYWGQGTLVTVSS VL: not shown | 111 nM | – | – | IC50 (read off the curve) [2]: ~60 nM; Kd [3]: 2.18 nM; koff [3]: 0.000456 s⁻¹; kon [3]: 209000 M⁻¹ s⁻¹; Kd [4]: 2.2 nM; IC50 [5]: 62.2 nM |
| anti-LAG-3 antibody clone A6 (format not stated) (antibody, V domains shown, also called antibody A6) VH: EVQLVQSGAEVKKPGSSVKVSCKASGYTFTSYYMHWVRQAPGQGLEWMGIINPSGGSTSYAQKFQGRVTMTRDTSTSTVYMELSSLRSEDTAVYYCAMPFGDFDYWGQGTLVTVSS VL: not shown | – | 1.25 nM | – | – |
| anti-LAG-3 antibody clone F5 (format not stated) (antibody, V domains shown, also called antibody F5) VH: EVQLVQSGAEVKKPGASVKVSCKVSGYTLTELSMHWVRQTPGKGLEWMGGFDPEDGETIYAQKFQGRVTMTEDTSTDTAYMELSSLRSEDTAVYYCATTWFGELYYWGQGTLVTVSS VL: ETTLTQSPGTLSLSPGERATLSCRASQSVSSGYLAWYQQKPGQAPRLLIYDASSRATGIPDRFSGSGSGADFTLTISRLQPEDFAVYYCQQYGSSRPGLTFGGGTRVEIK | – | 1.21 nM | – | – |
| anti-LAG-3 antibody clone G8 (format not stated) (antibody, V domains shown, also called antibody G8) VH: QVQLVQSGGGVVQPGRSLRLSCAASGFTFSSYAMHWVRQAPGKGLEWVAVISYDGSNKYYADSVKGRFTISRDNSKNTLYLQMNSLRAEDTAVYYCARDPDAANWGFLLYYGMDVWGQGTTVTVSS VL: EIVLTQSPGTLSLSPGERATLSCTTSQSVSSTSLDWYQQKPGQAPRLLIYGASSRATGIPDRFSGSGSGTDFTLTISRLEPEDFAVYYCQQYGSSLLTFGGGTKVEIK | – | 0.7 nM | – | – |
| anti-LAG-3 antibody clone C2 Fab (Fab, V domains shown) VH: QVQLVQSGGGVVQPGRSLRLSCAASGFTFSSYAMHWVRQAPGKGLEWVAVISYDGSNKYYADSVKGRFTISRDNSKNTLYLQMNSLRAEDTAVYYCARDPDAANWGFLLYYGMDVWGQGTTVTVSS VL: not shown | 33 nM | – | no binding | – |
| anti-LAG-3 antibody clone F5 Fab (Fab, V domains shown) VH: EVQLVQSGAEVKKPGASVKVSCKVSGYTLTELSMHWVRQTPGKGLEWMGGFDPEDGETIYAQKFQGRVTMTEDTSTDTAYMELSSLRSEDTAVYYCATTWFGELYYWGQGTLVTVSS VL: ETTLTQSPGTLSLSPGERATLSCRASQSVSSGYLAWYQQKPGQAPRLLIYDASSRATGIPDRFSGSGSGADFTLTISRLQPEDFAVYYCQQYGSSRPGLTFGGGTRVEIK | 3 nM | – | no binding | – |
| anti-LAG-3 antibody clone G8 Fab (Fab, V domains shown) VH: QVQLVQSGGGVVQPGRSLRLSCAASGFTFSSYAMHWVRQAPGKGLEWVAVISYDGSNKYYADSVKGRFTISRDNSKNTLYLQMNSLRAEDTAVYYCARDPDAANWGFLLYYGMDVWGQGTTVTVSS VL: EIVLTQSPGTLSLSPGERATLSCTTSQSVSSTSLDWYQQKPGQAPRLLIYGASSRATGIPDRFSGSGSGTDFTLTISRLEPEDFAVYYCQQYGSSLLTFGGGTKVEIK | 12 nM | – | no binding | – |
